The assay deals with RNA polymerase II. The assay is described as follows: Re-ChIP (IP ERα then IP PolII), real time qPCR. Conditions: HEK293T cells, read off a plot.
The mark [1] stands for this setting: complement C3 enhancer, cadmium (2 µM) for 60 minutes.
Where [2] appears, read: complement C3 enhancer, control (untreated).
Setting [3] is: complement C3 enhancer, estradiol (100 nM) for 60 minutes.
[4] abbreviates: lactoferrin enhancer, cadmium (2 µM) for 60 minutes.
The mark [5] stands for this setting: lactoferrin enhancer, control (untreated).
Where [6] appears, read: lactoferrin enhancer, estradiol (100 nM) for 60 minutes.

This passage reports response results from PMC11341946.

Regarding “wild-type estrogen receptor alpha (from UniProt P03372) Y537S”, the response is 0.015 % Input under setting [1]; 0.0065 % Input under setting [2]; 0.0073 % Input under setting [3]; 0.0063 % Input under setting [4]; 0.0022 % Input under setting [5]; 0.0022 % Input under setting [6].

Regarding “wild-type estrogen receptor alpha (from UniProt P03372) D538G”, the response under setting [1] amounted to 0.019 % Input; the response under setting [2] worked out at 0.0076 % Input; the response under setting [3] stood at 0.0077 % Input; the response under setting [4] was 0.014 % Input; the response under setting [5] was 0.0046 % Input; the response under setting [6] was 0.0061 % Input.
